Earlier results as cited in article PMC12756081.

Legend:
IL-18Rα (Homo sapiens) = IL-18Rα (Homo sapiens) (UniProt Q13478); settings: cited from earlier work
[1] = molecular target: IL-18Rα/IL-18Rβ (Homo sapiens) (UniProt Q13478); settings: cited from earlier work
IL-18Rα/IL-18Rβ (Homo sapiens), sequence (Q13478 19-541, chain 1 of 2): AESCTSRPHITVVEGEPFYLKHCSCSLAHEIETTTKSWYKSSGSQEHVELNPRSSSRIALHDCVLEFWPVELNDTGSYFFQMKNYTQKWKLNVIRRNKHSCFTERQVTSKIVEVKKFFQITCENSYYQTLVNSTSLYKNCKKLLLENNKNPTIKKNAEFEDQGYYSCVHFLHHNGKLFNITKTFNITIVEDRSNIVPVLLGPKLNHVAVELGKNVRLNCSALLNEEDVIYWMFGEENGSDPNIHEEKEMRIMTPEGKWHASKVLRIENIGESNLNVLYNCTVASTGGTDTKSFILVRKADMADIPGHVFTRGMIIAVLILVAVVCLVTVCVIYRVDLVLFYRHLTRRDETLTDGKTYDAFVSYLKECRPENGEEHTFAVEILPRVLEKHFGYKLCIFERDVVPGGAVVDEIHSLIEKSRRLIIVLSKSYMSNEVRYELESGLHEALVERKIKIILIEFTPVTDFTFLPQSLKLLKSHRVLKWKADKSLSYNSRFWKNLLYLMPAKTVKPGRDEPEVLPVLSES
IL-18Rα/IL-18Rβ (Homo sapiens), sequence (O95256 20-599, chain 2 of 2, further chain): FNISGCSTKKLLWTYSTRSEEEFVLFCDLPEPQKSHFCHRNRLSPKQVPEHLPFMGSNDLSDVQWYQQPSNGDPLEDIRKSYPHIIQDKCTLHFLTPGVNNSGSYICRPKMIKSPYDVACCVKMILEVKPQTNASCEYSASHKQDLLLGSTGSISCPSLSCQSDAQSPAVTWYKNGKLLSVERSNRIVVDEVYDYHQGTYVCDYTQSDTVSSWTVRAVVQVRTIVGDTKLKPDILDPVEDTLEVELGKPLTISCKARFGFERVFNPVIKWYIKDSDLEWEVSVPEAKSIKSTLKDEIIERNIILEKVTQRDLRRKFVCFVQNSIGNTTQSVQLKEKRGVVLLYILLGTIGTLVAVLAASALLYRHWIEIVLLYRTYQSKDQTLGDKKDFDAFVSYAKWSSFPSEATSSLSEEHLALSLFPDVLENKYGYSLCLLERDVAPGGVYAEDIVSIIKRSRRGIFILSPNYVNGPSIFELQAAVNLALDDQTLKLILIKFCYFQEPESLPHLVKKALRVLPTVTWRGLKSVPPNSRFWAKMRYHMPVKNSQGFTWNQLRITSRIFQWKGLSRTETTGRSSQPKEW

IL-18, sequence (Q14116 37-193): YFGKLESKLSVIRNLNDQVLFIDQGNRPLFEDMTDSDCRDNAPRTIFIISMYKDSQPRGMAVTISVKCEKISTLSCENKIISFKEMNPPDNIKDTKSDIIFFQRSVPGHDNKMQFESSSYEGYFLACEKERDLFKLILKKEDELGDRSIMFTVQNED
IL-18Rα (Homo sapiens), sequence (Q13478 19-541): as the sequence (Q13478 19-541, chain 1 of 2) above

Q: What does the source list for IL-18 (from UniProt Q14116)?
A: Kd (IL-18Rα (Homo sapiens)): 30 nM; Kd [1]: 1 nM
